Several values for one entry are separate records, joined by “and”; a condition that tells them apart may be missing. Identical values can stand only once.
The substances below were run against full length human mpl receptor expressed on 32D-mpl cells (human) (UniProt P40238) (assay: cell-based or functional assay).

Substance	IN VITRO ACTIVITY U/mg X10E6	In Vitro Activity (units/ml)	Specific Activity (units/ ng)
mpl ligand analog N4 [Asn^30, Thr^32] mpl ligand 1-174	6e+07 U/mg	8830 units/ml	232 units/ng
mpl ligand analog N5 [Asn^38, Thr^40] mpl ligand 1-174		< 10 units/ml	< 8 units/ng
mpl ligand analog N3 [Asn^25] mpl ligand 1-174		636 units/ml	344 units/ng
mpl ligand analog N7 [Asn^82, Ala^83] mpl ligand 1-174		2660 units/ml and 3080 units/ml	443 units/ng and 655 units/ng
mpl ligand analog N14 [Asn^58, Thr^60] mpl ligand 1-174		4850 units/ml	271 units/ng
mpl ligand analog N9 [Asn^92] mpl ligand 1-174		1970 units/ml	188 units/ng
mpl ligand analog N13 [Asn^53, Thr^55] mpl ligand 1-174		18000 units/ml	269 units/ng
mpl ligand analog N15 [Asn^30, Thr^32, Asn^120, Thr^122] mpl ligand 1-174	9.2e+07 U/mg	6420 units/ml	247 units/ng
mpl ligand analog N6 [Asn^86] mpl ligand 1-174		< 10 units/ml	< 22 units/ng

Continued, values first:

IN VITRO ACTIVITY U/mg X10E6	In Vitro Activity (units/ml)	Specific Activity (units/ ng)	Substance
1.3e+07 U/mg			Met-Lys-mpl ligand 1-174 (E. coli)
8.6e+07 U/mg			human mpl ligand 1-163 (CHO)
	< 10 units/ml	< 8 units/ng	mpl ligand analog N11 [Ser^36, Asn^38, Thr^40] mpl ligand 1-174
	5940 units/ml and 9690 units/ml	291 units/ng and 288 units/ng	mpl ligand analog N10 [Asn^120, Thr^122] mpl ligand 1-174
4.1e+07 U/mg			human mpl ligand 1-332 (CHO)

Target: full length human mpl receptor expressed on 32D-mpl cells (human) (UniProt P40238)
Assay: cell-based or functional assay
Remark: another data set of the same source

Substance	In Vitro Activity (units/ml)	Specific Activity (units/ ng)
mpl ligand analog N26 [Asn^118, Ser^120] mpl ligand 1-174	96 units/ml	106 units/ng
mpl ligand analog N34 [Asn^30, Thr^32, Asn^55'(i), Thr^57, Thr^163, Asn^164] mpl ligand 1-174	13500 units/ml	120 units/ng
mpl ligand analog N24 [Asn^57, Ser^59] mpl ligand 1-174	458 units/ml	86 units/ng
mpl ligand analog N39 [Asn^30, Thr^32, Asn^120, Thr^122, Asn^55, Thr^57, Thr^163, Asn^164, Thr^166] mpl ligand 1-174	17700 units/ml	139 units/ng
mpl ligand analog N36 [Asn^55, Thr^57] mpl ligand 1-174	5810 units/ml	121 units/ng
mpl ligand analog N27 [Asn^119, Ser^121] mpl ligand 1-174	338 units/ml	75 units/ng
mpl ligand analog N33 [Asn^30, Thr^32, Asn^120, Thr^122, Asn^55'(i), Thr^57] mpl ligand 1-174	10100 units/ml	129 units/ng
mpl ligand analog N29 [Asn^30, Ser^32, Asn^120, Ser^122] mpl ligand 1-174	1630 units/ml	108 units/ng
mpl ligand analog N23 [Asn^55'(i), Thr^57] mpl ligand 1-174	1060 units/ml	96 units/ng
mpl ligand analog N25 [Asn^81, Thr^83] mpl ligand 1-174	123 units/ml	559 units/ng
mpl ligand analog N18 [Asn^23, Ser^25] mpl ligand 1-174	5 units/ml	2.5 units/ng
mpl ligand analog N37 [Asn^56] mpl ligand 1-174	4500 units/ml	141 units/ng
mpl ligand analog N15 [Asn^30, Thr^32, Asn^120, Thr^122] mpl ligand 1-174	7000 units/ml	156 units/ng
mpl ligand analog N22 [Asn^52, Thr^54] mpl ligand 1-174	856 units/ml	428 units/ng
mpl ligand analog N20 [Asn^39, Ser^41] mpl ligand 1-174	< 10 units/ml	
mpl ligand analog N21 [Asn^54, Ser^56] mpl ligand 1-174	4380 units/ml	146 units/ng

Other lines, results leading:

In Vitro Activity (units/ml)	Specific Activity (units/ ng)	Substance
11 units/ml		mpl ligand 1-191 (N17)
15600 units/ml	122 units/ng	mpl ligand analog N30 [Thr^163, Asn^164] mpl ligand 1-174
13100 units/ml	76 units/ng	mpl ligand analog N35 (N4+N23+N30 changes in mpl ligand 1-199)
19000 units/ml	122 units/ng	mpl ligand 1-199 (N31)
19700 units/ml	147 units/ng	mpl ligand analog N40 (N4+N10+N36+N38 changes in mpl ligand 1-199)
3900 units/ml	156 units/ng	mpl ligand analog N38 [Thr^163, Asn^164, Thr^166] mpl ligand 1-174
9280 units/ml		mpl ligand 1-183 (N16)

From patent EP0811064B1
